Results from US20150065440A1, “SULFATED OLIGOSACCHARIDE DERIVATIVES” (Progen Pharmaceuticals Limited, priority 2007, published 2015).

Substrate: CO[C@H]1O[C@H](COS(=O)(=O)O)[C@@H](O[C@@H]2O[C@@H](C(=O)O)[C@@H](O[C@H]3O[C@H](COS(=O)(=O)O)[C@@H](O[C@@H]4O[C@H](C(=O)O)[C@@H](O[C@H]5O[C@H](COS(=O)(=O)O)[C@@H](O)[C@H](O)[C@H]5NS(=O)(=O)O)[C@H](O)[C@H]4O)[C@H](OS(=O)(=O)O)[C@H]3NS(=O)(=O)O)[C@H](O)[C@H]2OS(=O)(=O)O)[C@H](O)[C@H]1NS(=O)(=O)O
Experiment: purified protein, by the assay type
Conditions: other: substrate of heparanase; pH 5.0

B1: recombinant human heparanase (Homo sapiens) (protein)
chain 1: KKFKNSTYSRSSVDVLYTFANCSGLDLIFGLNALLRTADLQWNSSNAQLLLDYCSSKGYNISWELGNEPNSFLKKADIFINGSQLGEDFIQLHKLLRKSTFKNAKLYGPDVGQPRRKTAKMLKSFLKAGGEVIDSVTWHHYYLNGRTATKEDFLNPDVLDIFISSVQKVFQVVESTRPGKKVWLGETSSAYGGGAPLLSDTFAAGFMWLDKLGLSARMGIEVVMRQVFFGAGNYHLVDENFDPLPDYWLSLLFKKLVGTKVLMASVQGSKRRKLRVYLHCTNTDNPRYKEGDLTLYAINLHNVTKYLRLPYPFSNKQVDKYLLRPLGPHGLLSKSVQLNGLTLKMVDDQTLPPLMEKPLRPGSSLGLPAFSYSFFVIRNAKVAACI
chain 2: QDVVDLDFFTQEPLHLVSPSFLSVTIDANLATDPRFLILLGSPKLRTLARGLSPAYLRFGGTKTDFLIFDPKKE
**Q.** With B1 as the protein, how does the Km read?
**A.** 33 ± 6 µM
